These results are taken from PMC5678105.

Assay in all cases: EMSA
In general terms: In EMSA bound probe runs differently from free probe, usually more slowly.

Data set [1] concerns TALE_2c_26 (3) (Xanthomonas axonopodis scaffold (designed TALE)). As to conditions: 5mC at strand 1 nt 24 (site position 13, T = 0); EMSA: 20 mM Tris pH 8, 50 mM NaCl, 5 mM MgCl2, 5% glycerol; 0.1 pmol TALE + 0.5 pmol duplex in 10 uL; RT 30 min then ice 30 min; gel 0.5x TAE 4 C; GFP readout.
For data set [2], the system named is TALE_2c_26 (23) (Xanthomonas axonopodis scaffold (designed TALE)). As to conditions: 5mC at strand 1 nt 24 (site position 13, T = 0); EMSA: 20 mM Tris pH 8, 50 mM NaCl, 5 mM MgCl2, 5% glycerol; 0.1 pmol TALE + 0.5 pmol duplex in 10 uL; RT 30 min then ice 30 min; gel 0.5x TAE 4 C; GFP readout.
In data set [3] the test system is TALE_9a_26 (5*) (Xanthomonas axonopodis scaffold (designed TALE)). As to conditions: 5mC at strand 1 nt 16 (site position 5, T = 0); EMSA: 20 mM Tris pH 8, 50 mM NaCl, 5 mM MgCl2, 5% glycerol; 0.1 pmol TALE + 0.5 pmol duplex in 10 uL; RT 30 min then ice 30 min; gel 0.5x TAE 4 C; GFP readout.
For data set [4], the system named is TALE_9a_26 K171A/R173A (Xanthomonas axonopodis scaffold (designed TALE)). As to conditions: 5mC at strand 1 nt 16 (site position 5, T = 0); EMSA: 20 mM Tris pH 8, 50 mM NaCl, 5 mM MgCl2, 5% glycerol; 0.1 pmol TALE + 0.5 pmol duplex in 10 uL; RT 30 min then ice 30 min; gel 0.5x TAE 4 C; GFP readout.
Data set [5] relates to TALE_9a_26 K262A (Xanthomonas axonopodis scaffold (designed TALE)). As to conditions: 5mC at strand 1 nt 16 (site position 5, T = 0); EMSA: 20 mM Tris pH 8, 50 mM NaCl, 5 mM MgCl2, 5% glycerol; 0.1 pmol TALE + 0.5 pmol duplex in 10 uL; RT 30 min then ice 30 min; gel 0.5x TAE 4 C; GFP readout.
The subject of data set [6] is TALE_9a_26 R266A (Xanthomonas axonopodis scaffold (designed TALE)). As to conditions: 5mC at strand 1 nt 16 (site position 5, T = 0); EMSA: 20 mM Tris pH 8, 50 mM NaCl, 5 mM MgCl2, 5% glycerol; 0.1 pmol TALE + 0.5 pmol duplex in 10 uL; RT 30 min then ice 30 min; gel 0.5x TAE 4 C; GFP readout.
In data set [7] the test system is TALE_9a_26 R236A (Xanthomonas axonopodis scaffold (designed TALE)). As to conditions: 5mC at strand 1 nt 16 (site position 5, T = 0); EMSA: 20 mM Tris pH 8, 50 mM NaCl, 5 mM MgCl2, 5% glycerol; 0.1 pmol TALE + 0.5 pmol duplex in 10 uL; RT 30 min then ice 30 min; gel 0.5x TAE 4 C; GFP readout.
The subject of data set [8] is TALE_9a_26 (3) (Xanthomonas axonopodis scaffold (designed TALE)). As to conditions: 5mC at strand 1 nt 16 (site position 5, T = 0); EMSA: 20 mM Tris pH 8, 50 mM NaCl, 5 mM MgCl2, 5% glycerol; 0.1 pmol TALE + 0.5 pmol duplex in 10 uL; RT 30 min then ice 30 min; gel 0.5x TAE 4 C; GFP readout.

In the case of “CATCCATGAGTGAGAAACCCTGGCGGGGTGTGACATCCTCCCCCGG (double strand) [2c_26 5mC]”, the binding signal (fold C/5mC selectivity vs WT TALE) in data set [1] is 2.5; in data set [2], 1.1.

Take “GGCCAGCCAGTCAGCCGAAGGCTCCATGCTGCTCCCCGCCGCCGGC (double strand) [9a_26 5mC]”: the binding signal (fold C/5mC selectivity vs WT TALE) in data set [3] was determined as 7.2; in data set [4], 2.9; in data set [5], 3; in data set [6] it was 3; in data set [7], 1.4; in data set [8], 5.7.
